In patent US20240327505A1 (published 2024):

Key:
[1] = target: SARS-CoV-2 Nucleocapsid (N) protein (SARS-CoV-2, UniProt P0DTC9 1-419)
[2] = target: SARS-CoV-2 Nucleocapsid (N) protein (SARS-CoV-2, UniProt P0DTC9 1-419); remark: listed apart in the source
[3] = target: SARS-CoV-2 spike S2 protein (SARS-CoV-2, UniProt P0DTC2 686-1213)
[4] = target: SARS-CoV-2 S2 protein (SARS-CoV-2, UniProt P0DTC2 686-1213)
[5] = target: T1, SARS-CoV-2 spike S2 protein (SARS-CoV-2, UniProt P0DTC2 686-1213); experiment: BLI, as in Example 4
T1 construct: domain: S2

[6] = target: SARS-CoV-2 spike protein on fully infectious (replication-competent) SARS-CoV-2 virus (SARS-CoV-2, UniProt P0DTC2 14-1273); experiment: cell-based or functional assay
[7] = target: SARS-CoV-2 Wuhan-1 full-length Spike protein on pseudovirus (SARS-CoV-2, UniProt P0DTC2 14-1273); experiment: cell-based or functional assay
[8] = target: SARS-CoV-1 spike protein on pseudovirus (SARS-CoV-1, UniProt P59594 14-1255); experiment: cell-based or functional assay
[9] = target: SARS-CoV-2 Envelope (E) protein (SARS-CoV-2, UniProt P0DTC4 1-75); experiment: ELISA, Envelope
[10] = target: SARS-CoV-2 Spike (S) trimer (SARS-CoV-2, UniProt P0DTC2 16-1213); experiment: ELISA on coated S trimer, 1:50

B1: AB-009112 (antibody, V domains shown)
VH: QVQLVESGGGVVQPGRSLRLSCAASGFTFSSYAMHWVRQAPGKGLEWVAVISYDGSNKYYADSVKGRFTISRDNSKNTLYLQMNSLRAEDTAVYYCASSLVGATKSYYYYYYGMDVWGQGTTVTVSS
VL: SYELTQPLSVSVALGQTARITCGGNNIGSKNVHWYQQKPGQAPVLVIYRDSNRPSGIPERFSGSNSGNTATLTISRAQAGDEADYYCQVWDSSSVVFGGGTKLTVL
Kd [1]: 32.7 nM

B2: AB-009799 (antibody, V domains shown)
VH: QVQLVQSGAEVKKPGASVKVSCKASGYTFTSYDINWVRQATGQGLEWMGWMNPNSGNTGYAQKFQGRVTMTRNTSISTAYMELSSLRSEDTAVYYCARGRLRITIFNRVYYFDYWGQGTLVTVSS
VL: not shown
Kd [2]: 19.6 nM | koff [2]: 0.000265 s⁻¹ | kon [2]: 13600 M⁻¹ s⁻¹

B3: AB-009095 (antibody, V domains shown)
VH: EVQLVQSGAEVKKPGESLIISCTGSGYTFATFWITWVRQMPGKGLEWLGRIDPSDSYTNYNPSFQGHVTVSVDRSINTAYLELTSLKASDTAIYYCARQMYNTGWPIPNYSDYWGQGTLVTVSS
VL: QSALTQPPSASGSPGQSVTISCAGASTDVGVYNFVSWYQQHPGKAPKLIIFDVNKRPSGVPDRFSGSKSGNTASLTVSGLQAEDEADYYCSSYEVGNNFVFGTGTKVTVL
Kd [3]: 0.176 nM | koff [3]: 2.15e-07 s⁻¹ | kon [3]: 1220 M⁻¹ s⁻¹ | Kd [1]: 0.833 nM | koff [1]: 5.93e-05 s⁻¹ | kon [1]: 71100 M⁻¹ s⁻¹

B4: AB-009791 (antibody, V domains shown)
VH: QLQLQESGPGLVKPSETLSLTCTVSGGSISSSSYYWGWIRQPPGKGLEWIGSIYYSGSTYYNPSLKSRVTISVDTSKNQFSLKLSSVTAADTAVYYCAREPRRVKQWLVVPYYYMDVWGKGTTVTVSS
VL: not shown
Kd [2]: 4.61 nM | koff [2]: 8.35e-05 s⁻¹ | kon [2]: 18100 M⁻¹ s⁻¹

B5: AB-009627 (antibody, V domains shown)
VH: QVQLQQWGAGLLKPSETLSLTCAVYGGSFSGYYWSWIRQPPGKGLEWIGEINHSGSTNYNPSLKSRVTISVDTSKNQFSLKLSSVTAADTAVFYCARGGYSSSWYGEKYWFDPWGQGTLVTVSS
VL: QSALTQPRSVSGSPGQSVTISCTGTSSDVGGYNYVSWYQQHPGKAPKLMIYDVSKRPSGVPDRFSGSKSGNTASLTISGLQAEDEADYYCCSYAGSPYVFGTGTKVTVL
Kd [4]: 0.246 nM | koff [4]: 2.85e-07 s⁻¹ | kon [4]: 1160 M⁻¹ s⁻¹

B6: AB-009270 (antibody, V domains shown)
VH: QMQLVQSGPEVKKPGTSVKVSCKASGFTFTSSAMQWVRQARGQRLEWIGWIVVGSGNTNYAQKFQERVTITRDMSTSTAYMELSSLRSEDTAVYYCAVNYCSSTSCYDAFDIWGQGTMVTVSS
VL: not shown
binding result [5]: no binding | Neutralization (Infectious virus; (µg/mL)) [6]: 1.37 µg/mL | Pseudovirus Neturalization [7]: 0.065 µg/mL | Pseudovirus Neturalization [8]: > 50 µg/mL

B7: AB-010021 (antibody, V domains shown)
VH: QMQLVQSGPEVKKPGTSVKVSCKASGFTFTSSAVQWVRQARGQRLEWIGWIVVGSGNTNYAQKFQERVTITRDMSTSTAYMELSSLRSEDTAVYYCAAVYCSGGSCLDAFDIWGQGTMVTVSS
VL: not shown
notes: also called AB-0010021
binding result [5]: no binding | Pseudovirus Neturalization [7]: 1.56 µg/mL | Pseudovirus Neturalization [8]: > 50 µg/mL

B8: AB-010020 (antibody, V domains shown)
VH: QMQLVQSGPEVKKPGTSVKVSCKASGFTFTSSAVQWVRQARGQRLEWIGWIVVGSGNTNYAQKFQERVTITRDMSTSTAYMELSSLRSEDTAVYYCAAPACSSTSCYDGFDIWGQGTMVTVSS
VL: not shown
binding result [5]: no binding | Pseudovirus Neturalization [7]: 0.004 µg/mL | Pseudovirus Neturalization [8]: > 50 µg/mL

B9: AB-009325 (antibody, V domains shown)
VH: QVQLVESGGGVVQPGRSLRLSCAASGFTFNNYGMHWVRQAPGKGLEWVALISYEGSLKYYGDSVRGRFTVSRDNSRNTLYLQMNSLRVDDTAVYYCAKAGGIFAIHYYGMNVWGQGTTVTVSS
VL: QSVLTQPPSVSAAPGQKVTISCSGSSSNIGKNYVSWYRQFPGTAPKLLIYDNNKRPSGIPDRFSGSKSDTSATLGITGLQTGDEADYYCVTWDSSLSAGVFGGGTKLTVL
OD 450 nm [9]: 0.32 OD | OD 450 nm [10]: 1.39 OD | Kd [3]: 0.0467 nM | koff [3]: 2.77e-07 s⁻¹ | kon [3]: 5930 M⁻¹ s⁻¹

B10: AB-009357 (antibody, V domains shown)
VH: QLQLQESGPGLVKPSETLSLTCTVSGGSISSSSYYWGWIRQPPGKGLEWIGSIYYSGSTYYNPSLKSRVTISVDTSKNQFSLKLSSVTAADTAVYYCARHPLSSITIFGVVKREYYFDYWGQGTLVTVSS
VL: DIQMTQSPSSVSASVGDRVTITCRASQGISSWLAWYQQKPGKAPKLLIYAASSLQSGVPSRFSGSGSGTDFTLTISSLQPEDFATYYCQQANSFPLLFGGGTKVEIK
OD 450 nm [9]: 0.221 OD | OD 450 nm [10]: 2.77 OD

B11: AB-009335 (antibody, V domains shown)
VH: QVQLQESGPGLVKPSETLSLTCTVSGGSISSHYWSWIRQPPGKGLEWIGYIYYSGSTNYNPSLKSRVTISVDTSKNQFSLKLSSVTAADTAVYYCARVRREWLAAYFYYGMDVWGQGTTVTVSS
VL: DIQMTQSPSSLSASVGDRVTITCRASQGISNYLAWYQQKPGKVPKLLIYAASTLQSGVPSRFSGSGSGTDFTLTISSLQPEDVATYYCQKYNSAPLTFGGGTKVEIK
OD 450 nm [9]: 0.4 OD | OD 450 nm [10]: 1.03 OD

B12: AB-009778 (antibody, V domains shown)
VH: QLQLQESGPGLVKPSETLSLTCTVSGGSISSSSYYWGWIRQPPGKGLEWIGSIYYSGSTYYNPSLKSRVTISVDTSKNQFSLKLSSVTAADTAVYYCARQFRRWLQLGPSYFDYWGQGTLVTVSS
VL: not shown
Kd [2]: 48.5 nM | koff [2]: 0.000866 s⁻¹ | kon [2]: 17800 M⁻¹ s⁻¹

B13: AB-009613 (antibody, V domains shown)
VH: EVQLVESGGGLIQPGGSLRLSCAASGFTVSSNYMSWVRQAPGKGLEWVSVIYSGGSTYYADSVKGRFTISRDNSKNTLYLQMNSLRAEDTAVYYCARDYGDFYFDYWGQGTLVTVSS
VL: not shown
binding result [5]: no binding | Neutralization (Infectious virus; (µg/mL)) [6]: 3.4 µg/mL | Pseudovirus Neturalization [7]: 1.53 µg/mL | Pseudovirus Neturalization [8]: > 50 µg/mL

B14: AB-009271 (antibody, V domains shown)
VH: EVQLVESGGGLIQPGGSLRLSCAASGFIVSSNYMSWVRQAPGKGLEWVSVIYSGGSTYYADSVKGRFTISRDNSKNTLYLQMNSLRAEDTAVYYCARDYGDFYFDYWGQGTLVTVSS
VL: EIVMTQSPATLSVSPGERATLSCRASQSVSSNLAWYQQKPGQAPRLLIYGASTRATGIPARFSGSGSGTEFTLTISSLQSEDFAVYYCQQYYNWPRTFGQGTKVEIK
binding result [5]: no binding | Neutralization (Infectious virus; (µg/mL)) [6]: 0.181 µg/mL | Pseudovirus Neturalization [7]: 0.058 µg/mL | Pseudovirus Neturalization [8]: > 50 µg/mL

B15: AB-009734 (antibody, V domains shown)
VH: QVHLVQSGAEVKTPGASVRVSCKASGYTFTSHYMHWVRQAPGQGLEWMGLINPSGSGTAYPQHFQGRVTMTRDTSTTTDYMDLSSLRSEDTAMYFCARMERSGAFDLWGQGTMVTVSS
VL: EIVLTQSPGTLSLSPGERATLSCRASQTISSRYLAWYYQKPGQAPRLLIQGSSIRATGIPDRFSGSGSGTDFTLTISRLEPEDFAVYYCQHYGSSPPMYTFGQGTKLEIK
Kd [2]: 22.2 nM | koff [2]: 0.000979 s⁻¹ | kon [2]: 44000 M⁻¹ s⁻¹ | Kd [4]: 12.4 nM | koff [4]: 0.000103 s⁻¹ | kon [4]: 8280 M⁻¹ s⁻¹

B16: AB-009213 (antibody, V domains shown)
VH: EVQLVESGGGLVKPGGSLRLSCAASGFTFSSYSMNWVRQAPGKGLEWVSSISSSSSYIYYADSVKGRFTISRDNAKNSLYLQMNSLRAEDTAVYYCARDKLREDGDYDDAFDIWGQGTMVTVSS
VL: not shown
Kd [1]: 10 nM | koff [1]: 0.00112 s⁻¹ | kon [1]: 112000 M⁻¹ s⁻¹

B17: AB-009610 (antibody, V domains shown)
VH: QVQLVQSGAEVKKPGSSVKVSCKASGGTFSNYAISWVRQAPGQGLEWMGRIIPILGIANYAQKFQGRVTITADKSTSTAYMELSSLRSEDTAVYYCATTPYYYDSSGYYLDYWGQGTLVTVSS
VL: not shown
binding result [5]: no binding | Neutralization (Infectious virus; (µg/mL)) [6]: 6.25 µg/mL | Pseudovirus Neturalization [7]: 6.77 µg/mL | Pseudovirus Neturalization [8]: > 50 µg/mL

B18: AB-009119 (antibody, V domains shown)
VH: EVQLVESGGGLVQPGGSLKLSCAASGFTFSGSAMHWVRQASGKGLEWVGRIRSKANSYATAYAASVKGRFTISRDDSKNTAYLQMNSLKTEDTAVYYCTRHGTTVNWGQGTLVTVSS
VL: not shown
Kd [3]: 0.0583 nM | koff [3]: 2.56e-07 s⁻¹ | kon [3]: 4390 M⁻¹ s⁻¹ | Kd [1]: 7.35 nM | koff [1]: 0.000647 s⁻¹ | kon [1]: 88000 M⁻¹ s⁻¹

B19: AB-009190 (antibody, V domains shown)
VH: QVQLVESGGGVVQPGRSLRLSCAASGFTFSSYAMHWVRQAPGKGLEWVAVISYDGSNKYYADSVKGRFTISRDNSKNTLYLQMNSLRAEDTAVYYCARLNGDAYYYYGMDVWGQGTTVTVSS
VL: not shown
OD 450 nm [9]: 0.469 OD | Kd [1]: 54.1 nM | koff [1]: 0.000947 s⁻¹ | kon [1]: 17500 M⁻¹ s⁻¹

B20: AB-009620 (antibody, V domains shown)
VH: QITLKESGPTLVKPTQTLTLTCTFSGFSLSTSGVGVGWIRQPPGKALEWLALIYWDDDKRYSPSLKSRLTITKDTSKNQVVLTMTNMDPVDTATYYCAHHEVATVFDYWGQGTLVTVSS
VL: QSALTQPASVSGSPGQSITISCTGTSSDVGAYNYVSWYQQHPGKAPKLMIYEVSNRPSGVSNRFSGSKSGNTASLTISGLQAEDEADYYCSSYTSSSTVFGGGTKLTVL
binding result [5]: no binding | Neutralization (Infectious virus; (µg/mL)) [6]: 13.3 µg/mL | Pseudovirus Neturalization [7]: 1.04 µg/mL | Pseudovirus Neturalization [8]: > 50 µg/mL
